Assay results from patent US20060217290A1 (published 2006).

Key:
[1] = molecular target: T1, human insulin receptor (human, UniProt P06213 28-1382); assay: competitive binding SPA, displacement of [125I] insulin from human IR membranes
T1 construct: whole, on cells; Assayed as membrane preparation (P1) of transfected 293EBNA cells, not as intact cells; also called IR; HIR

[2] = molecular target: T2, human IGF-1 receptor (human, UniProt P08069 31-1367); assay: competitive binding SPA, displacement of [125I]IGF-1 from human IGF-1R membranes
T2 construct: whole, on cells; Assayed as membrane preparation (P1) of transfected 293EBNA cells, not as intact cells; also called IGF-R; insulin growth factor receptor

B1: A0^ArgA21^GlyB29^ArgB31^ArgB32^Lys-human insulin (ligand)
chain 1: RGIVEQCCTSICSLYQLENYCG
chain 2: FVNQHLCGSHLVEALYLVCGERGFFYTPRTRK
notes: Insulin analog; Disulfides A7-B7, A20-B19, A6-A11; also called ArgA0, GlyA21, ArgB29, ArgB31, LysB32-human insulin
- Relative IR Affinity (Mean) [1]: 0.21 relative to recombinant human insulin
- Relative IGF1-R Affinity (Mean) [2]: 1.1 relative to recombinant human insulin
